Assay results published in patent US20210246166A1 (Bayer, published 2021).
Numbered stars: 1 amine (or outer) side, 2 acyl side, 3 side chain; on linkers, the order of the positions; unused ones are H or OH. Bridge positions count the residues as written; N and C are the ends. Square brackets hold non-standard residues; d marks the D form. Ends that are not written are not given here. * marks the point of attachment. βDap = *Dap: Dap linked through its additional amino group, O=C([C@H](CN[*:1])N[*:3])[*:2]; X3 = (1R,3S)‑3‑(Amino)cyclopentanecarboxylic acid, O=C([C@@H]1CC[C@H](N[*:1])C1)[*:2]; X4 = (1S,3R)‑3‑(Amino)cyclopentanecarboxylic acid, O=C([C@H]1CC[C@@H](N[*:1])C1)[*:2]; X9 = (S)‑3‑(1-Pyrrolidine-2-yl)‑propionic acid, O=C(CC[C@@H]1CCCN1[*:1])[*:2]; X8 = (R)‑4‑Amino‑6‑methylheptanoic acid, CC(C)C[C@@H](CCC(=O)[*:2])N[*:1]; X6 = (S)‑(1-Piperidin-3-yl)‑acetic acid, O=C(C[C@@H]1CCCN([*:1])C1)[*:2]; X14 = (2,4-dioxoimidazolidin-1-yl)acetic acid, O=C1CN(CC(=O)*)C(=O)N1; His(τ-Bzl) = N[C@@H](Cc1cn(Cc2ccccc2)cn1)C(=O)O; Nip(3R) = O=C([C@@H]1CCCN([*:1])C1)[*:2]; Oic = O=C(O)[C@@H]1C[C@@H]2CCCC[C@@H]2N1; βPro(3S) = O=C([C@H]1CCN([*:1])C1)[*:2]; tBuAla = CC(C)(C)C[C@H](N)C(=O)O; Pen = CC(C)(S)[C@H](N)C(=O)O; β3hP = O=C(O)C[C@@H]1CCCN1; NMeA = CN[C@@H](C)C(=O)O; Nva = CCC[C@H](N)C(=O)O; Sar = CNCC(=O)O

B1: Example 448: ((N-Me)G)-IC+RRS-((tBu)A)-PP-(Nva)-(Pen)+IP-NH2 (peptide)
peptide: [Sar]ICRRS[tBuAla]PP[Nva][Pen]IP-NH2
modifications: disulfide 3-11; N-terminus assumed
SMILES: CCC[C@@H]1NC(=O)[C@@H]2CCCN2C(=O)[C@@H]2CCCN2C(=O)[C@H](CC(C)(C)C)NC(=O)[C@H](CO)NC(=O)[C@H](CCCNC(=N)N)NC(=O)[C@H](CCCNC(=N)N)NC(=O)[C@@H](NC(=O)[C@@H](NC(=O)CNC)[C@@H](C)CC)CSSC(C)(C)[C@@H](C(=O)N[C@H](C(=O)N2CCC[C@H]2C(N)=O)[C@@H](C)CC)NC1=O
B2: Example 453: ((N-Me)G)-IC+SRSLP-(Oic)-I-(Pen)+IP-((S)-3-(1-Pyrrolidine-2-yl)-propionic acid)-OH (peptide)
peptide: [Sar]ICSRSLP[Oic]I[Pen]IP[X9]-OH
modifications: disulfide 3-11; N-terminus assumed
SMILES: CC[C@H](C)[C@H](NC(=O)CNC)C(=O)N[C@H]1CSSC(C)(C)[C@@H](C(=O)N[C@H](C(=O)N2CCC[C@H]2C(=O)N2CCC[C@H]2CCC(=O)O)[C@@H](C)CC)NC(=O)[C@H]([C@@H](C)CC)NC(=O)[C@@H]2C[C@@H]3CCCC[C@@H]3N2C(=O)[C@@H]2CCCN2C(=O)[C@H](CC(C)C)NC(=O)[C@H](CO)NC(=O)[C@H](CCCNC(=N)N)NC(=O)[C@H](CO)NC1=O
B3: Example 457: ((2,4-dioxoimidazolidin-1-yl)acetic acid)-IC+SRSLP-(Oic)-I-(Pen)+IPD-OH (peptide)
peptide: X14-ICSRSLP[Oic]I[Pen]IPD-OH
modifications: disulfide 2-10
SMILES: CC[C@H](C)[C@H](NC(=O)CN1CC(=O)NC1=O)C(=O)N[C@H]1CSSC(C)(C)[C@@H](C(=O)N[C@H](C(=O)N2CCC[C@H]2C(=O)N[C@@H](CC(=O)O)C(=O)O)[C@@H](C)CC)NC(=O)[C@H]([C@@H](C)CC)NC(=O)[C@@H]2C[C@@H]3CCCC[C@@H]3N2C(=O)[C@@H]2CCCN2C(=O)[C@H](CC(C)C)NC(=O)[C@H](CO)NC(=O)[C@H](CCCNC(=N)N)NC(=O)[C@H](CO)NC1=O
B4: Example 450: ((N-Me)G)-IC+SRSLP-(Oic)-I-(Pen)+IP-((R)-4-Amino-6-methylheptanoic acid)-OH (peptide)
peptide: [Sar]ICSRSLP[Oic]I[Pen]IP[X8]-OH
modifications: disulfide 3-11; N-terminus assumed
SMILES: CC[C@H](C)[C@H](NC(=O)CNC)C(=O)N[C@H]1CSSC(C)(C)[C@@H](C(=O)N[C@H](C(=O)N2CCC[C@H]2C(=O)N[C@H](CCC(=O)O)CC(C)C)[C@@H](C)CC)NC(=O)[C@H]([C@@H](C)CC)NC(=O)[C@@H]2C[C@@H]3CCCC[C@@H]3N2C(=O)[C@@H]2CCCN2C(=O)[C@H](CC(C)C)NC(=O)[C@H](CO)NC(=O)[C@H](CCCNC(=N)N)NC(=O)[C@H](CO)NC1=O
B5: Example 456: ((N-Me)G)-IC+SRSLP-(Oic)-I-(Pen)+IP-((S)-Pyrrolidine-3-carboxylic acid)-OH (peptide)
peptide: [Sar]ICSRSLP[Oic]I[Pen]IP[βPro(3S)]-OH
modifications: disulfide 3-11; N-terminus assumed
SMILES: CC[C@H](C)[C@H](NC(=O)CNC)C(=O)N[C@H]1CSSC(C)(C)[C@@H](C(=O)N[C@H](C(=O)N2CCC[C@H]2C(=O)N2CC[C@H](C(=O)O)C2)[C@@H](C)CC)NC(=O)[C@H]([C@@H](C)CC)NC(=O)[C@@H]2C[C@@H]3CCCC[C@@H]3N2C(=O)[C@@H]2CCCN2C(=O)[C@H](CC(C)C)NC(=O)[C@H](CO)NC(=O)[C@H](CCCNC(=N)N)NC(=O)[C@H](CO)NC1=O
B6: Example 459: ((R)-Piperidine-3-carboxylic acid)-IC+SRSLP-(Oic)-I-(Pen)+I-OH (peptide)
peptide: [Nip(3R)]ICSRSLP[Oic]I[Pen]I-OH
modifications: disulfide 3-11; N-terminus assumed
SMILES: CC[C@H](C)[C@H](NC(=O)[C@H]1NC(=O)[C@H]([C@@H](C)CC)NC(=O)[C@@H]2C[C@@H]3CCCC[C@@H]3N2C(=O)[C@@H]2CCCN2C(=O)[C@H](CC(C)C)NC(=O)[C@H](CO)NC(=O)[C@H](CCCNC(=N)N)NC(=O)[C@H](CO)NC(=O)[C@@H](NC(=O)[C@@H](NC(=O)[C@@H]2CCCNC2)[C@@H](C)CC)CSSC1(C)C)C(=O)O
B7: Example 447: ((N-Me)G)-IC+SRS-((tBu)A)-PPI-(Pen)+IP-((1-Bn)H)-OH (peptide)
peptide: [Sar]ICSRS[tBuAla]PPI[Pen]IP[His(τ-Bzl)]-OH
modifications: disulfide 3-11; N-terminus assumed
SMILES: CC[C@H](C)[C@H](NC(=O)CNC)C(=O)N[C@H]1CSSC(C)(C)[C@@H](C(=O)N[C@H](C(=O)N2CCC[C@H]2C(=O)N[C@@H](Cc2cn(Cc3ccccc3)cn2)C(=O)O)[C@@H](C)CC)NC(=O)[C@H]([C@@H](C)CC)NC(=O)[C@@H]2CCCN2C(=O)[C@@H]2CCCN2C(=O)[C@H](CC(C)(C)C)NC(=O)[C@H](CO)NC(=O)[C@H](CCCNC(=N)N)NC(=O)[C@H](CO)NC1=O
B8: Example 451: ((N-Me)G)-IC+SRSLP-(Oic)-I-(Pen)+IP-((S)-(1-Piperidin-3-yl)-acetic acid)-OH (peptide)
peptide: [Sar]ICSRSLP[Oic]I[Pen]IP[X6]-OH
modifications: disulfide 3-11; N-terminus assumed
SMILES: CC[C@H](C)[C@H](NC(=O)CNC)C(=O)N[C@H]1CSSC(C)(C)[C@@H](C(=O)N[C@H](C(=O)N2CCC[C@H]2C(=O)N2CCC[C@@H](CC(=O)O)C2)[C@@H](C)CC)NC(=O)[C@H]([C@@H](C)CC)NC(=O)[C@@H]2C[C@@H]3CCCC[C@@H]3N2C(=O)[C@@H]2CCCN2C(=O)[C@H](CC(C)C)NC(=O)[C@H](CO)NC(=O)[C@H](CCCNC(=N)N)NC(=O)[C@H](CO)NC1=O
B9: Example 458: AIC+SRSLP-(Oic)-I-(Pen)+IP-(*Dap)-OH (peptide)
peptide: AICSRSLP[Oic]I[Pen]IP[βDap]-OH
modifications: disulfide 3-11; also: Dap at position 14 joined through its 3-amino group
B10: Example 449: ((N-Me)G)-IC+SRSLP-(Oic)-I-(Pen)+IP-((1R,3S)-3-(Amino)cyclopentanecarboxylic acid)-OH (peptide)
peptide: [Sar]ICSRSLP[Oic]I[Pen]IP[X3]-OH
modifications: disulfide 3-11; N-terminus assumed
SMILES: CC[C@H](C)[C@H](NC(=O)CNC)C(=O)N[C@H]1CSSC(C)(C)[C@@H](C(=O)N[C@H](C(=O)N2CCC[C@H]2C(=O)N[C@H]2CC[C@@H](C(=O)O)C2)[C@@H](C)CC)NC(=O)[C@H]([C@@H](C)CC)NC(=O)[C@@H]2C[C@@H]3CCCC[C@@H]3N2C(=O)[C@@H]2CCCN2C(=O)[C@H](CC(C)C)NC(=O)[C@H](CO)NC(=O)[C@H](CCCNC(=N)N)NC(=O)[C@H](CO)NC1=O
B11: Example 454: ((N-Me)G)-IC+SRSLP-(Oic)-I-(Pen)+IPN-OH (peptide)
peptide: [Sar]ICSRSLP[Oic]I[Pen]IPN-OH
modifications: disulfide 3-11; N-terminus assumed
SMILES: CC[C@H](C)[C@H](NC(=O)CNC)C(=O)N[C@H]1CSSC(C)(C)[C@@H](C(=O)N[C@H](C(=O)N2CCC[C@H]2C(=O)N[C@@H](CC(N)=O)C(=O)O)[C@@H](C)CC)NC(=O)[C@H]([C@@H](C)CC)NC(=O)[C@@H]2C[C@@H]3CCCC[C@@H]3N2C(=O)[C@@H]2CCCN2C(=O)[C@H](CC(C)C)NC(=O)[C@H](CO)NC(=O)[C@H](CCCNC(=N)N)NC(=O)[C@H](CO)NC1=O
B12: Example 455: ((N-Me)G)-IC+SRSLP-(Oic)-I-(Pen)+IP-(beta-homo-P)-OH (peptide)
peptide: [Sar]ICSRSLP[Oic]I[Pen]IP[β3hP]-OH
modifications: disulfide 3-11; N-terminus assumed
SMILES: CC[C@H](C)[C@H](NC(=O)CNC)C(=O)N[C@H]1CSSC(C)(C)[C@@H](C(=O)N[C@H](C(=O)N2CCC[C@H]2C(=O)N2CCC[C@H]2CC(=O)O)[C@@H](C)CC)NC(=O)[C@H]([C@@H](C)CC)NC(=O)[C@@H]2C[C@@H]3CCCC[C@@H]3N2C(=O)[C@@H]2CCCN2C(=O)[C@H](CC(C)C)NC(=O)[C@H](CO)NC(=O)[C@H](CCCNC(=N)N)NC(=O)[C@H](CO)NC1=O
B13: Example 445: ((N-Me)A)-IC+SRS-((tBu)A)-P-((3R,6R)-1,1-Difluoro-5-azaspiro[2.4]heptane-6-carboxylic acid (enantiomer 2))-I-(Pen)+IP-NH2 (peptide)
peptide: [NMeA]ICSRS[tBuAla]P[(3R,6R)‑1,1‑Difluoro‑5‑azaspiro(2.4)heptane‑6‑carboxylic acid (enantiomer 2)]I[Pen]IP-NH2
modifications: disulfide 3-11
B14: Example 452: ((N-Me)G)-IC+SRSLP-(Oic)-I-(Pen)+IP-((1S,3R)-3-(Amino)cyclopentanecarboxylic acid)-OH (peptide)
peptide: [Sar]ICSRSLP[Oic]I[Pen]IP[X4]-OH
modifications: disulfide 3-11; N-terminus assumed
SMILES: CC[C@H](C)[C@H](NC(=O)CNC)C(=O)N[C@H]1CSSC(C)(C)[C@@H](C(=O)N[C@H](C(=O)N2CCC[C@H]2C(=O)N[C@@H]2CC[C@H](C(=O)O)C2)[C@@H](C)CC)NC(=O)[C@H]([C@@H](C)CC)NC(=O)[C@@H]2C[C@@H]3CCCC[C@@H]3N2C(=O)[C@@H]2CCCN2C(=O)[C@H](CC(C)C)NC(=O)[C@H](CO)NC(=O)[C@H](CCCNC(=N)N)NC(=O)[C@H](CO)NC1=O

Target: recombinant rat MASP2 active protease (amino acids 296-685, C-terminal His Tag) (rat, UniProt Q9JJS8 296-685)
Sequence (Q9JJS8 other isoform, or with tags, fused parts or gaps limits assumed): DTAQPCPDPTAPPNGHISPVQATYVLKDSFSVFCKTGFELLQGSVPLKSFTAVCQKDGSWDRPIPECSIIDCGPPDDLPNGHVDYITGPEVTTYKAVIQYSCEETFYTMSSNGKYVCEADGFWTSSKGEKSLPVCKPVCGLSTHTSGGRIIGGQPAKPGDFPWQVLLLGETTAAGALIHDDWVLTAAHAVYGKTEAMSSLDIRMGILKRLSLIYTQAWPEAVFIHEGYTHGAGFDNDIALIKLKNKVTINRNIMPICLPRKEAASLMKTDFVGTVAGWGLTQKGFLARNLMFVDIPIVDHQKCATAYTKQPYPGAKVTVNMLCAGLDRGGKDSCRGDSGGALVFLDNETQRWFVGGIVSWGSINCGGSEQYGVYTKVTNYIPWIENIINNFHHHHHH
Experiment: cell-based or functional assay

Binder | rat MASP2 IC50
B1 | 5000 nM
B2 | 32 nM
B3 | 5 nM
B4 | 52 nM
B5 | 30 nM
B6 | 51 nM
B7 | 35 nM
B8 | 46 nM
B9 | 100 nM
B10 | 44.5 nM
B11 | 79 nM
B12 | 32 nM
B13 | 94 nM
B14 | 37 nM

Target: T1, recombinant rat MASP1 active protease (amino acids 302-704, C-terminal His Tag) (rat, UniProt Q8CHN8 302-704)
T1 sequence: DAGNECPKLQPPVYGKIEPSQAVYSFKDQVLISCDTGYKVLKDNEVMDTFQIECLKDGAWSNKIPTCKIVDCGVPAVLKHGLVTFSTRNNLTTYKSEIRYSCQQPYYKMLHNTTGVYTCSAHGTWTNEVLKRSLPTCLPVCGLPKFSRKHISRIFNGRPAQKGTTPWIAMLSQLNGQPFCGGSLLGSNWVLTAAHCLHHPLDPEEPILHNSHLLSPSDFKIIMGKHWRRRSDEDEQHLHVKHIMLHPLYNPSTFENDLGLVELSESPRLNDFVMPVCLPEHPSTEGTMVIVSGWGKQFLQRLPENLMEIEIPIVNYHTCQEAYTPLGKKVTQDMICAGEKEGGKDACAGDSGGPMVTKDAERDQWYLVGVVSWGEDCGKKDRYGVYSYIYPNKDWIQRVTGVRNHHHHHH
Experiment: cell-based or functional assay

Binder | rat MASP1 IC50
B1 | 5000 nM
B2 | 38 nM
B3 | 20 nM
B4 | 31 nM
B5 | 39 nM
B6 | 180 nM
B7 | 21 nM
B8 | 46 nM
B9 | 250 nM
B10 | 45 nM
B11 | 127 nM
B12 | 41 nM
B13 | 150 nM
B14 | 36 nM
